Reference: the Human Domainome abundance scans (Beltran et al. 2025)
± gives the uncertainty stated by the source.

B1: Homeobox protein cut-like 2, residues 895 to 963; numbered along this chain, O14529 (parent)
chain: EVDTLELTRQVKEKLAKNGICQRIFGEKVLGLSQGSVSDMLSRPKPWSKLTQKGREPFIRMQLWLSDQL
B2: POU domain, class 6, transcription factor 2, residues 609 to 663; numbered along this chain, P78424 (parent)
chain: KRRTSFTPQALEILNAHFEKNTHPSGQEMTEIAEKLNYDREVVRVWFCNKRQALK

Variants of: B1
Assay: abundance fitness (aPCA) (normalised: wild type 0, dead -1); higher = more abundant; growth selection in yeast, the domain comes from the species named
Conditions: Homo sapiens

Variant	abundance fitness
W64A	-1.17 ± 0.089
W64Q	-0.907 ± 0.066
W64K	-0.899 ± 0.07
W64M	-1.06 ± 0.1
W64D	-1.06 ± 0.2
W64I	-1.19 ± 0.25
W64G	-0.942 ± 0.093
W64L	-0.822 ± 0.047
W64P	-0.806 ± 0.05
W64H	-1.08 ± 0.14
W64F	-0.222 ± 0.082
W64V	-1.15 ± 0.087
W64Y	-0.372 ± 0.092
W64T	-1.31 ± 0.12
W64N	-0.678 ± 0.28
W64R	-0.945 ± 0.063
W64C	-0.946 ± 0.17
W64S	-1.3 ± 0.097
D67P	-0.209 ± 0.077
D67G	0.009 ± 0.14
D67Q	0.057 ± 0.068
D67Y	-0.321 ± 0.065
D67C	-0.576 ± 0.11
D67W	-0.661 ± 0.1
D67S	-0.082 ± 0.042
D67I	-0.603 ± 0.074

Variant	abundance fitness
D67M	-0.25 ± 0.04
D67H	-0.296 ± 0.13
D67A	-0.207 ± 0.1
D67K	-0.037 ± 0.078
D67V	-0.549 ± 0.088
D67N	-0.07 ± 0.13
D67L	-0.389 ± 0.028
D67R	-0.008 ± 0.083
D67F	-0.64 ± 0.045
D67E	-0.017 ± 0.12
L63Y	-0.115 ± 0.049
L63G	-0.19 ± 0.2
L63K	0.113 ± 0.063
L63W	-0.271 ± 0.087
L63R	0.096 ± 0.051
L63D	0.07 ± 0.12
L63F	-0.274 ± 0.046
L63T	-0.003 ± 0.038
L63E	0.037 ± 0.11
L63I	-0.213 ± 0.059
L63H	0.012 ± 0.04
L63Q	0.078 ± 0.038
L63V	-0.103 ± 0.06
L63N	-0.006 ± 0.07
L63A	0.058 ± 0.055
L63P	-0.728 ± 0.033

Variant	abundance fitness
L63S	0.069 ± 0.032
L63M	0.041 ± 0.047
L63C	-0.127 ± 0.09
L69A	-0.164 ± 0.07
L69Q	-0.092 ± 0.074
L69R	-0.08 ± 0.04
L69M	-0.007 ± 0.049
L69H	-0.182 ± 0.17
L69K	-0.041 ± 0.064
L69F	-0.083 ± 0.054
L69S	-0.052 ± 0.043
L69C	-0.054 ± 0.059
L69D	-0.188 ± 0.18
L69G	-0.056 ± 0.045
L69I	-0.221 ± 0.11
L69E	-0.068 ± 0.064
L69N	-0.058 ± 0.13
L69T	-0.199 ± 0.059
L69Y	-0.096 ± 0.098
L69P	-0.163 ± 0.057
L69W	-0.137 ± 0.044
M61G	-0.735 ± 0.055
M61K	-1.05 ± 0.16
M61E	-1.02 ± 0.17
M61A	-0.093 ± 0.041
M61V	-0.418 ± 0.048

Variant	abundance fitness
M61Q	-1.02 ± 0.1
M61D	-0.702 ± 0.3
M61S	-0.606 ± 0.037
M61H	-0.812 ± 0.11
M61C	-0.292 ± 0.054
M61L	-0.191 ± 0.031
M61R	-0.935 ± 0.046
M61F	-0.157 ± 0.072
M61W	-0.379 ± 0.038
M61Y	-1 ± 0.18
L65P	-1.03 ± 0.051
L65Y	-0.56 ± 0.053
L65I	-0.278 ± 0.065
L65R	-0.782 ± 0.055
L65C	-0.511 ± 0.1
L65K	-0.726 ± 0.045
L65A	-0.694 ± 0.093
L65N	-0.973 ± 0.082
L65G	-0.952 ± 0.14
L65H	-0.696 ± 0.08
L65F	-0.193 ± 0.042
L65E	-1.28 ± 0.24
L65T	-0.975 ± 0.058
L65S	-0.962 ± 0.049
L65Q	-0.926 ± 0.07
L65D	-0.841 ± 0.27

Variant	abundance fitness
L65W	-0.44 ± 0.12
L65M	-0.294 ± 0.034
F58Q	-1.01 ± 0.1
F58C	-0.845 ± 0.12
F58Y	0.186 ± 0.19
F58W	-0.111 ± 0.046
F58R	-0.906 ± 0.064
F58M	-0.502 ± 0.076
F58G	-0.888 ± 0.099
F58N	-1.1 ± 0.3
F58A	-0.917 ± 0.06
F58E	-0.763 ± 0.14
F58I	-0.596 ± 0.14
F58S	-1.11 ± 0.062
F58V	-0.662 ± 0.049
F58T	-1.11 ± 0.096
F58K	-1.11 ± 0.18
F58L	-0.274 ± 0.031
S66W	-0.08 ± 0.052
S66T	-0.008 ± 0.032
S66F	-0.2 ± 0.053
S66Y	-0.001 ± 0.089
S66A	-0.045 ± 0.069
S66Q	0.002 ± 0.035
S66L	-0.104 ± 0.024
S66E	-0.069 ± 0.077

Variant	abundance fitness
S66C	-0.048 ± 0.15
S66M	-0.085 ± 0.032
S66P	-0.998 ± 0.046
S66G	0.048 ± 0.073
S66V	-0.066 ± 0.037
S66R	0.028 ± 0.045
S66K	0.109 ± 0.041
S66H	0.005 ± 0.092
S66N	0.189 ± 0.076
S66I	-0.039 ± 0.08
S66D	0.094 ± 0.24
Q68K	0.062 ± 0.041
Q68N	-0.068 ± 0.05
Q68E	-0.014 ± 0.039
Q68I	-0.142 ± 0.047
Q68V	-0.072 ± 0.029
Q68R	-0.057 ± 0.044
Q68W	-0.087 ± 0.037
Q68M	-0.022 ± 0.034
Q68F	-0.099 ± 0.036
Q68Y	-0.105 ± 0.044
Q68G	-0.13 ± 0.03
Q68S	-0.097 ± 0.061
Q68L	-0.052 ± 0.03
Q62G	-0.06 ± 0.039
Q62W	0.005 ± 0.046

Variant	abundance fitness
Q62S	-0.079 ± 0.035
Q62K	0.17 ± 0.073
Q62V	-0.367 ± 0.046
Q62Y	-0.278 ± 0.17
Q62F	-0.69 ± 0.14
Q62A	-0.098 ± 0.035
Q62M	-0.153 ± 0.061
Q62R	0.015 ± 0.029
Q62T	-0.308 ± 0.038
Q62H	-0.127 ± 0.084
Q62C	-0.263 ± 0.075
Q62D	-0.654 ± 0.16
Q62N	-0.401 ± 0.16
Q62P	-0.84 ± 0.041
Q62I	-0.277 ± 0.11
R60K	0.15 ± 0.042
R60W	-0.553 ± 0.095
R60F	-1.08 ± 0.14
R60I	-0.653 ± 0.091
R60Y	-0.633 ± 0.1
R60Q	-0.111 ± 0.032
R60A	-0.27 ± 0.067
R60D	-0.905 ± 0.36
R60G	-0.287 ± 0.23
R60S	-0.396 ± 0.034
R60H	-0.462 ± 0.064

Variant	abundance fitness
R60P	-0.912 ± 0.033
R60E	-0.631 ± 0.19
R60L	-0.215 ± 0.027
R60T	-0.209 ± 0.033
R60V	-0.863 ± 0.091
R60N	-0.413 ± 0.093
R60C	-0.681 ± 0.27
R60M	-0.38 ± 0.042
E56W	-0.314 ± 0.039
E56Y	-0.248 ± 0.079
P57G	-0.456 ± 0.32
P57T	0.017 ± 0.033
P57Q	-0.036 ± 0.038
P57A	-0.016 ± 0.063
P57E	-0.139 ± 0.1
P57Y	0.027 ± 0.052
P57L	0.087 ± 0.029
P57V	-0.117 ± 0.074
P57R	-0.081 ± 0.055
P57H	-0.026 ± 0.041
P57W	-0.102 ± 0.088
P57D	-0.085 ± 0.17
P57C	-0.139 ± 0.14
P57M	0.073 ± 0.043
P57I	0.044 ± 0.041
P57K	-0.058 ± 0.066

Variant	abundance fitness
P57F	-0.028 ± 0.051
P57S	-0.034 ± 0.033
I59M	-0.046 ± 0.041
I59Q	0.031 ± 0.036
I59S	-0.118 ± 0.034
I59E	0.028 ± 0.064
I59K	0.079 ± 0.051
I59A	-0.079 ± 0.039
I59W	-0.299 ± 0.072
I59Y	-0.059 ± 0.059
I59G	-0.315 ± 0.064
I59C	-0.278 ± 0.13
I59D	-0.535 ± 0.1
I59F	-0.212 ± 0.072
I59N	-0.117 ± 0.051
I59L	-0.011 ± 0.031
I59T	-0.049 ± 0.034
I59H	0.051 ± 0.047
I59P	-0.937 ± 0.043
I59R	0.113 ± 0.04

Variants of: B2
Assay: as above
Conditions: Homo sapiens

Variant	abundance fitness
L14C	-0.734 ± 0.19
L14H	-0.788 ± 0.31
L14W	-1.03 ± 0.13
N15F	-0.543 ± 0.33
N15S	-0.193 ± 0.12
N15K	-0.13 ± 0.14
N15I	-0.78 ± 0.38
N15Y	-0.615 ± 0.24
F47E	-0.89 ± 0.1
F47H	-0.913 ± 0.16
H17Q	-0.002 ± 0.086
H17P	-0.961 ± 0.25
H17M	-0.028 ± 0.077
H17E	0.064 ± 0.072
V45M	0.07 ± 0.48
V45L	0.02 ± 0.099
N37I	-0.326 ± 0.22
N37G	0.081 ± 0.075
N37C	-0.252 ± 0.12
S25V	-0.207 ± 0.098
S25I	-0.355 ± 0.17
C48Y	-0.062 ± 0.17

Variant	abundance fitness
C48S	0.039 ± 0.16
P8V	0.004 ± 0.11
P8T	0.477 ± 0.48
E41Q	-0.216 ± 0.099
E41C	-0.119 ± 0.12
E31C	-0.424 ± 0.23
E31K	-0.31 ± 0.23
T7I	-0.615 ± 0.2
T7E	0.05 ± 0.13
T7L	-0.288 ± 0.08
Q52A	-0.006 ± 0.1
Q27G	-0.063 ± 0.066
Q27H	0.243 ± 0.25
K20S	-0.088 ± 0.075
K20A	-0.064 ± 0.073
K20E	-0.007 ± 0.099
K20Y	-0.224 ± 0.12
Q9T	-0.106 ± 0.18
Q9Y	-0.088 ± 0.3
Q9I	-0.057 ± 0.5
N21R	-0.274 ± 0.064
R40E	0.017 ± 0.089

Variant	abundance fitness
R40K	0.001 ± 0.092
T4E	0.045 ± 0.11
T4F	-0.333 ± 0.14
K35Y	-0.088 ± 0.21
K35I	-0.167 ± 0.25
L11Y	-0.339 ± 0.21
L11A	-0.279 ± 0.1
L11E	-0.002 ± 0.12
L11Q	-0.435 ± 0.16
L11V	0.053 ± 0.095
H23G	-0.217 ± 0.063
H23W	-0.124 ± 0.11
Y38A	0.02 ± 0.046
Y38D	-0.152 ± 0.066
Y38W	-0.071 ± 0.059
T30I	-0.088 ± 0.22
T22L	-0.017 ± 0.077
T22H	0.134 ± 0.14
T22G	0.002 ± 0.067
V42N	-0.064 ± 0.18
V42W	-0.151 ± 0.08
V42G	-0.056 ± 0.062

Variant	abundance fitness
K50A	-0.125 ± 0.097
R2P	-0.118 ± 0.13
K1T	-0.077 ± 0.19
W46N	-0.891 ± 0.23
N49Y	-0.218 ± 0.14
E19H	-0.092 ± 0.14
E19D	-0.037 ± 0.11
E19R	-0.05 ± 0.071
E19F	-0.288 ± 0.12
I32F	-0.649 ± 0.32
R3G	-0.035 ± 0.059
R3N	0.208 ± 0.17
R3E	0.043 ± 0.1
S5R	-0.113 ± 0.058
A10S	-0.262 ± 0.15
A10W	-0.87 ± 0.27
A10K	-0.587 ± 0.33
A10R	-0.904 ± 0.14
F6P	0.039 ± 0.17
I13Q	-0.132 ± 0.22
V43M	-0.931 ± 0.18
V43A	-0.614 ± 0.099

Variant	abundance fitness
V43G	-0.943 ± 0.091
E12S	-0.009 ± 0.12
A16S	-0.16 ± 0.073
A16Y	-0.151 ± 0.12
D39E	-0.208 ± 0.092
D39R	-0.131 ± 0.053
D39T	-0.002 ± 0.058
E34T	-0.012 ± 0.32
R44M	-0.075 ± 0.093
R44D	-0.179 ± 0.12
R44F	-0.117 ± 0.1
A53M	0.034 ± 0.19
A53K	-0.167 ± 0.27
A53V	-0.2 ± 0.13
A53T	-0.157 ± 0.13
A53S	0.005 ± 0.099
G26S	-0.08 ± 0.12
G26Q	-0.415 ± 0.23
